# Legend:
# [1] = molecular target: Crotalus durissus terrificus venom; assay: ELISA, venom-coated wells; 1:25
# [2] = molecular target: Crotalus durissus terrificus venom; assay: ELISA, venom-coated wells; 1:62,500
# [3] = molecular target: Crotalus durissus terrificus venom; assay: ELISA, venom-coated wells (5 µg/ml); 1:3125
# [4] = molecular target: Crotalus durissus terrificus venom; assay: ELISA, venom-coated wells; 1:5
# [5] = molecular target: Crotalus durissus terrificus venom; assay: ELISA, venom-coated wells (5 µg/ml); 1:5
# [6] = molecular target: Crotalus durissus terrificus venom; assay: ELISA, venom-coated wells; 1:625
# [7] = molecular target: Crotalus durissus terrificus venom; assay: ELISA, venom-coated wells (5 µg/ml); 1:625
# [8] = molecular target: Crotalus durissus terrificus venom; assay: ELISA, venom-coated wells (5 µg/ml); undiluted
# [9] = molecular target: Crotalus durissus terrificus venom; assay: ELISA, venom-coated wells; 1:312,500
# [10] = molecular target: Crotalus durissus terrificus venom; assay: ELISA, venom-coated wells; 1:3125
# [11] = molecular target: Crotalus durissus terrificus venom; assay: ELISA, venom-coated wells (5 µg/ml); 1:25
# [12] = molecular target: Crotalus durissus terrificus venom; assay: ELISA, venom-coated wells (5 µg/ml); 1:125
# [13] = molecular target: Crotalus durissus terrificus venom; assay: ELISA, venom-coated wells; 1:125
substance,measurement,setting,value
preimmune chicken IgY (PEG prep) (antibody),ELISA absorbance,[1],0.016 absorbance
same,ELISA absorbance (absorbance (412 nm filter)),[2],0.001
same,ELISA absorbance,[3],0.002 absorbance
same,ELISA absorbance,[4],< 0 absorbance
same,ELISA absorbance,[5],< 0 absorbance
same,ELISA absorbance,[6],< 0 absorbance
same,ELISA absorbance,[7],0 absorbance
same,ELISA absorbance,[8],0.003 absorbance
same,ELISA absorbance (absorbance (412 nm filter)),[9],0.01
same,ELISA absorbance,[10],< 0 absorbance
same,ELISA absorbance,[11],0 absorbance
same,ELISA absorbance,[12],0.003 absorbance
same,ELISA absorbance,[13],< 0 absorbance

# Source: patent publication US6613329
